Holding throughout (assay): ITC
On the technique in general: In ITC the heat of successive injections is recorded.

One experiment deals with T1, Sas5_(YEATS) (S. cerevisiae, UniProt Q99314 2-139).
T1 chain: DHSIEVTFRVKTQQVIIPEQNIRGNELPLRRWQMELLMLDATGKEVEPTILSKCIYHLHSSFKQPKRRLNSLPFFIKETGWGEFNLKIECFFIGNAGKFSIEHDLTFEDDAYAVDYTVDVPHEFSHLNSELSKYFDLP

The target in another experiment is Hst2 (S. cerevisiae, UniProt P53686 1-357).
The next experiment deals with T2, Taf14_(YEATS) (S. cerevisiae, UniProt P35189 2-137).
T2 chain: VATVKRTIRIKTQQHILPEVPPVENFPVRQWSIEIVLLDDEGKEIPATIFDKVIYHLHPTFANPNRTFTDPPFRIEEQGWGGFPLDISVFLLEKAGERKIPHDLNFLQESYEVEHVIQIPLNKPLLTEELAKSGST

Ends that are not written are not given here. * marks the point of attachment. Bz = O=C(c1ccccc1)*

What is called Kd is the concentration at which binding is half-saturated. A high value points to weaker binding.

Sequence of Hst2 (P53686 whole entry): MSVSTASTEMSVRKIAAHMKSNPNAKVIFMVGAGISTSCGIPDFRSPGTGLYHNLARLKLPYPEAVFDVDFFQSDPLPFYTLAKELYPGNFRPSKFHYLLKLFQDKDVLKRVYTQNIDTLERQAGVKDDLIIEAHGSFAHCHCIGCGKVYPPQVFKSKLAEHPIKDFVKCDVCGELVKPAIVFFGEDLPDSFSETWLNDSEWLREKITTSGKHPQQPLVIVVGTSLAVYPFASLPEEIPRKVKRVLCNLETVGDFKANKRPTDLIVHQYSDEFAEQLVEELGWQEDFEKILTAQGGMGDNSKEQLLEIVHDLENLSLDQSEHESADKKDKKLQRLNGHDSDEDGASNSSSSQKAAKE

In the case of ARTKQTARKSTGGKAPRKQY (benzoyl-lysine (Kbz) at K9) [H3K9bz peptide], the Kd in the experiment with Sas5_(YEATS) worked out at 178 µM.
For the molecule TARKSTGGK(Bz)APRKQLASY [H3K14bz peptide], the Kd came out at 13.2 µM with Hst2, 385 µM with Taf14_(YEATS) and 100 µM with Sas5_(YEATS).
As for APRKQLASK(Bz)AARKSAPSTY [H3K23bz peptide], the figures for the Kd with Hst2, with Taf14_(YEATS) and in the experiment with Sas5_(YEATS) were 14.8 µM, 467 µM and 279 µM, respectively.
On the same counts, the results for KQLASKAARK(Bz)SAPSTGGVKY [H3K27bz peptide] are 6.13 µM, 136 µM and 92.6 µM.
On the same counts, the results for STGGKAPRKQLASKAARY (benzoyl-lysine (Kbz) at K18) [H3K18bz peptide] are 1.74 µM, 85.5 µM and 245 µM.

The values above are taken from paper PMC8927147 (2022).
